Test [1] concerns the target MbTEC^PH (R28E) (Monosiga brevicollis MX1). Kind of test: FP. The following applies: domain or fragment.
Test [2] deals with MbTEC^PH (PH domain of Monosiga brevicollis TEC, residues 1-174), labelled with Atto488 (Monosiga brevicollis MX1). Put plainly: fluorescence polarisation; fluorescence anisotropy; MbTEC^32K constructs serially diluted into 200 nM Atto488-labelled PH domain; 20 mM HEPES pH 7.4, 150 mM NaCl, 2% glycerol, 1 mM TCEP; 21 °C; one-site binding model.
Test [3] addresses MbTEC^PH (R28E) (Monosiga brevicollis MX1). The test is described as above.
Test [4] concerns the target MbTEC^PH (PH domain of Monosiga brevicollis TEC, residues 1-174), labelled with Atto488. Put plainly: fluorescence anisotropy. The following applies: parent: 4.0 ± 1.3 µM. A general note: Polarisation of emitted light reports the rotation of a fluorescent probe.

For orientation: Kd means the equilibrium constant for the complex coming apart. Take “MbTEC^32K (SH3-SH2-kinase module of Monosiga brevicollis TEC, residues 229-667)”: the Kd in test [1] is 22.4 µM.
“MbTEC^32K (SH3-SH2-kinase module of Monosiga brevicollis TEC, residues 229-667) (domain or fragment)” showed a Kd in test [2] of 4 µM. In test [3], this substance returned a fold weakening of binding against wild-type MbTEC^PH of 5 fold.
For “MbTEC^32K (SH3-SH2-kinase module of Monosiga brevicollis TEC, residues 229-667) Y579D; R581E”, the Kd in test [4] is 195 µM.

(Values after paper PMC13648279.)
